Measured values as given in patent US20220098307A1 (WUHAN YZY BIOPHARMA, published 2022).
Substitutions are numbered along the chain they refer to.

T1: Human BCMA (human, UniProt Q02223 1-54)
T1 sequence: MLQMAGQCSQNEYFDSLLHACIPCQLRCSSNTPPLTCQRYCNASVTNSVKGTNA

B1: BCMA-M2-WT (bispecific antibody, human IgG1, kappa)
chain: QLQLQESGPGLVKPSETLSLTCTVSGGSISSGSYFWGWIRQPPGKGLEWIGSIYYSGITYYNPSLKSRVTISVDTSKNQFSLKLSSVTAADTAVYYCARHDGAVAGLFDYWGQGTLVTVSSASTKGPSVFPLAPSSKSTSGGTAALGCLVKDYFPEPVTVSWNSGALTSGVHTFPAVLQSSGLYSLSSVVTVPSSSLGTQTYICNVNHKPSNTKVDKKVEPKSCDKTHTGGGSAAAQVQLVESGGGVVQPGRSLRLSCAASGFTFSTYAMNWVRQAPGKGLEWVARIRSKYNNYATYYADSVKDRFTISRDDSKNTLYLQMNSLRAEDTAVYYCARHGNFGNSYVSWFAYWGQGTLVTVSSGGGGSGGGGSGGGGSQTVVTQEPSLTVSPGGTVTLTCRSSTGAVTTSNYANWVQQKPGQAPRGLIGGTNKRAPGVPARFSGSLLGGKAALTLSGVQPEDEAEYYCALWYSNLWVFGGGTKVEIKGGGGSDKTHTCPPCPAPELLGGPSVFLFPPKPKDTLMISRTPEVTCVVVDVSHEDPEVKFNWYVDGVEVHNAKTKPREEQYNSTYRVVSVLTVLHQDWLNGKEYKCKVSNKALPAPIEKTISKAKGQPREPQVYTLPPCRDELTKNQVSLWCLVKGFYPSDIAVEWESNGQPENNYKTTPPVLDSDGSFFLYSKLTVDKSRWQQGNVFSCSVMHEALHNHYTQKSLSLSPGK
heavy: QLQLQESGPGLVKPSETLSLTCTVSGGSISSGSYFWGWIRQPPGKGLEWIGSIYYSGITYYNPSLKSRVTISVDTSKNQFSLKLSSVTAADTAVYYCARHDGAVAGLFDYWGQGTLVTVSSASTKGPSVFPLAPSSKSTSGGTAALGCLVKDYFPEPVTVSWNSGALTSGVHTFPAVLQSSGLYSLSSVVTVPSSSLGTQTYICNVNHKPSNTKVDKKVEPKSCDKTHTCPPCPAPELLGGPSVFLFPPKPKDTLMISRTPEVTCVVVDVSHEDPEVKFNWYVDGVEVHNAKTKPREEQYNSTYRVVSVLTVLHQDWLNGKEYKCKVSNKALPAPIEKTISKAKGQPREPQVCTLPPSRDELTKNQVSLSCAVKGFYPSDIAVEWESNGQPENNYKTTPPVLDSDGSFFLVSKLTVDKSRWQQGNVFSCSVMHEALHNRFTQKSLSLSPGK
light: SYVLTQPPSVSVAPGQTARITCGGNNIGSKSVHWYQQPPGQAPVVVVYDDSDRPSGIPERFSGNSNGNTATLTISRVEAGDEAVYYCQVWDSSSDHVVFGGGTKLTVLRTVAAPSVFIFPPSDEQLKSGTASVVCLLNNFYPREAKVQWKVDNALQSGNSQESVTEQDSKDSTYSLSSTLTLSKADYEKHKVYACEVTHQGLSSPVTKSFNRGEC
notes: structure 2 (fusion peptide 2, heavy, two light chains); BCMA x CD3; CH2 WT
B2: BCMA-M2-G2 (bispecific antibody, human IgG1, kappa)
chain: QLQLQESGPGLVKPSETLSLTCTVSGGSISSGSYFWGWIRQPPGKGLEWIGSIYYSGITYYNPSLKSRVTISVDTSKNQFSLKLSSVTAADTAVYYCARHDGAVAGLFDYWGQGTLVTVSSASTKGPSVFPLAPSSKSTSGGTAALGCLVKDYFPEPVTVSWNSGALTSGVHTFPAVLQSSGLYSLSSVVTVPSSSLGTQTYICNVNHKPSNTKVDKKVEPKSCDKTHTGGGSAAAQVQLVESGGGVVQPGRSLRLSCAASGFTFSTYAMNWVRQAPGKGLEWVARIRSKYNNYATYYADSVKDRFTISRDDSKNTLYLQMNSLRAEDTAVYYCARHGNFGNSYVSWFAYWGQGTLVTVSSGGGGSGGGGSGGGGSQTVVTQEPSLTVSPGGTVTLTCRSSTGAVTTSNYANWVQQKPGQAPRGLIGGTNKRAPGVPARFSGSLLGGKAALTLSGVQPEDEAEYYCALWYSNLWVFGGGTKVEIKGGGGSDKTHTCPPCPAPPVAGPSVFLFPPKPKDTLMISRTPEVTCVVVDVSHEDPEVQFNWYVDGVEVHNAKTKPREEQFNSTFRVVSVLTVVHQDWLNGKEYKCKVSNKGLPAPIEKTISKTKGQPREPQVYTLPPCRDELTKNQVSLWCLVKGFYPSDIAVEWESNGQPENNYKTTPPVLDSDGSFFLYSKLTVDKSRWQQGNVFSCSVMHEALHNHYTQKSLSLSPGK
heavy: QLQLQESGPGLVKPSETLSLTCTVSGGSISSGSYFWGWIRQPPGKGLEWIGSIYYSGITYYNPSLKSRVTISVDTSKNQFSLKLSSVTAADTAVYYCARHDGAVAGLFDYWGQGTLVTVSSASTKGPSVFPLAPSSKSTSGGTAALGCLVKDYFPEPVTVSWNSGALTSGVHTFPAVLQSSGLYSLSSVVTVPSSSLGTQTYICNVNHKPSNTKVDKKVEPKSCDKTHTCPPCPAPPVAGPSVFLFPPKPKDTLMISRTPEVTCVVVDVSHEDPEVQFNWYVDGVEVHNAKTKPREEQFNSTFRVVSVLTVVHQDWLNGKEYKCKVSNKGLPAPIEKTISKTKGQPREPQVCTLPPSRDELTKNQVSLSCAVKGFYPSDIAVEWESNGQPENNYKTTPPVLDSDGSFFLVSKLTVDKSRWQQGNVFSCSVMHEALHNRFTQKSLSLSPGK
light: B1 light
notes: structure 2; BCMA x CD3; CH2 G2CH2
B3: BCMA-M2-AG2 (bispecific antibody, human IgG1, kappa)
chain: B2 chain with C499A
heavy: B2 heavy with C233A
light: B1 light
notes: structure 2; BCMA x CD3; CH2 AG2CH2
B4: BCMA-M2-GG2 (bispecific antibody, human IgG1, kappa)
chain: B2 chain with C499G
heavy: B2 heavy with C233G
light: B1 light
notes: structure 2; BCMA x CD3; CH2 GG2CH2
B5: BCMA-M2-FES (bispecific antibody, human IgG1, kappa)
chain: QLQLQESGPGLVKPSETLSLTCTVSGGSISSGSYFWGWIRQPPGKGLEWIGSIYYSGITYYNPSLKSRVTISVDTSKNQFSLKLSSVTAADTAVYYCARHDGAVAGLFDYWGQGTLVTVSSASTKGPSVFPLAPSSKSTSGGTAALGCLVKDYFPEPVTVSWNSGALTSGVHTFPAVLQSSGLYSLSSVVTVPSSSLGTQTYICNVNHKPSNTKVDKKVEPKSCDKTHTGGGSAAAQVQLVESGGGVVQPGRSLRLSCAASGFTFSTYAMNWVRQAPGKGLEWVARIRSKYNNYATYYADSVKDRFTISRDDSKNTLYLQMNSLRAEDTAVYYCARHGNFGNSYVSWFAYWGQGTLVTVSSGGGGSGGGGSGGGGSQTVVTQEPSLTVSPGGTVTLTCRSSTGAVTTSNYANWVQQKPGQAPRGLIGGTNKRAPGVPARFSGSLLGGKAALTLSGVQPEDEAEYYCALWYSNLWVFGGGTKVEIKGGGGSDKTHTCPPCPAPEFEGGPSVFLFPPKPKDTLMISRTPEVTCVVVDVSHEDPEVKFNWYVDGVEVHNAKTKPREEQYNSTYRVVSVLTVLHQDWLNGKEYKCKVSNKALPASIEKTISKAKGQPREPQVYTLPPCRDELTKNQVSLWCLVKGFYPSDIAVEWESNGQPENNYKTTPPVLDSDGSFFLYSKLTVDKSRWQQGNVFSCSVMHEALHNHYTQKSLSLSPGK
heavy: B1 heavy with L238F, L239E, P335S
light: B1 light
notes: structure 2; BCMA x CD3; CH2 FES
B6: BCMA-M2-G2D (bispecific antibody, human IgG1, kappa)
chain: B2 chain with D539A
heavy: B2 heavy with D273A
light: B1 light
notes: structure 2; BCMA x CD3; CH2 G2DCH2
B7: BCMA-M2-PG2 (bispecific antibody, human IgG1, kappa)
chain: B2 chain with C499P
heavy: B2 heavy with C233P
light: B1 light
notes: structure 2; BCMA x CD3; CH2 PG2CH2
B8: BCMA-M2-DG2 (bispecific antibody, human IgG1, kappa)
chain: B2 chain with D534A
heavy: B2 heavy with D268A
light: B1 light
notes: structure 2; BCMA x CD3; CH2 DG2CH2
B9: BCMA-M2-SG2 (bispecific antibody, human IgG1, kappa)
chain: B2 chain with C499S
heavy: B2 heavy with C233S
light: B1 light
notes: structure 2; BCMA x CD3; CH2 SG2CH2
B10: BCMA-M2-DG2D (bispecific antibody, human IgG1, kappa)
chain: B2 chain with D534A, D539A
heavy: B2 heavy with D268A, D273A
light: B1 light
notes: structure 2; BCMA x CD3; CH2 DG2DCH2

biological target: T2, Human CD3ε (human, UniProt P07766 23-126); test: flow cytometry, human T cells
T2 construct: CD3 on T cells isolated from human whole blood
Procedure, shortened: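 Antigen-positive tumor cells or isolated T cells, 2×10⁵/well, 1% FBS-PBS, on ice. Ab 3000 nM top, 3-fold ×11, 2 h 4° C shaking; wash; PE anti-hIgG Fc 8 ug/ml, 1 h 4° C. FACS MFI; EC50, one site–specific binding.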

Binder | EC50 [nM]
B1 | 588
B2 | 515
B3 | 613
B4 | 448
B5 | 532
B6 | 351
B7 | 599
B8 | 550
B9 | 400
B10 | 534

biological target: T3, Monkey CD3 (monkey); test: flow cytometry, monkey T cells
T3 construct: whole, on cells; also called CD3 of monkey CD3 positive T cells

Binder | EC50 [nM]
B1 | 676
B2 | 591
B3 | 668
B4 | 636
B5 | 630
B6 | 510
B7 | 716
B8 | 501
B9 | 461
B10 | 641

biological target: T1, Human BCMA; test: flow cytometry, human tumor cells (BCMA+)
Text: 1) Cell preparation: T cells isolated from CD3-positive human whole blood were used for a CD3 end affinity detection of multifunctional antibody molecule; positive tumor cells of corresponding antigen were used for detecting affinity of tumor antigen; for example, CD38-positive MM. 1S cells (purchased from the Cell Resource Center of Shanghai Institutes for Biological Sciences, Chinese Academy of Sciences) or RPMI 8226 cells (purchased from the Cell Resource Center of Shanghai Institutes for Biological Sciences, Chinese Academy of Sciences) were used for CD38 antigen detection, and PD-L1 positive H358 cells (purchased from the Cell Resource Center of Shanghai Institutes for Biological Sciences, Chinese Academy of Sciences) were used for PD-L1 antigen detection, and so on. The cells were resuspended with 1% FBS-PBS, adjusted to a density of 4×10⁶/ml, and 50 μl of cells were taken from each well, and then plated at 2×10⁵ per well. Cell plating was operated on ice
2) Addition of the antibody: according to the experimental design, the antibody was diluted gradually, and dilution of antibody was operated on ice. For example, the initial concentration of antibody for dilution was 3000 nM, and the antibody was diluted by 3 times with 11 concentration gradients. The diluted antibody was added to a cell well at 50 μl per well, mixed well, and shaked and incubated at 4° C. 1100 rpm/min for 2 h; after washing, the cells were resuspend in 1% FBS-PBS, and a diluted secondary antibody PE anti-human IgG FC (Biolegend, 409304) was added with a final concentration of 8 ug/ml and a volume of 50 μl/well. At the same time, a well only added with cells and secondary antibody was set as a control, the components were mixed well, and incubated under shaking at 1100 rpm/min at 4° C. for 1 h;
5) Data analysis: the data was analyzed by a flow analysis software FlowJo 7.6 thereby obtaining an average fluorescence intensity of the specific antibody concentration, plotted by a Graphpad Prism 5 with the antibody concentration (nM) as an abscissa and the average fluorescence intensity as an ordinate; the EC50 value was calculated by the method of One site—Specific binding, and the EC50 value indicated the cell affinity of the antibody to the corresponding target antigen.

Binder | EC50 [nM]
B1 | 20.3
B2 | 19.1
B3 | 23.8
B4 | 23.6
B5 | 15.3
B6 | 19.2
B7 | 24
B8 | 17.4
B9 | 17
B10 | 18.8
